From patent US20250361288A1 (Gilead, published 2025)

Assays:
Assay in all cases: phage ELISA
[1] = target: T1, human LTβR extracellular domain fused with an Fc fragment at the C-terminus (human, UniProt P36941 31-227)
T1 construct: extracellular domain; Bought; also called hLTβR; not shown: Fc fragment at the C-terminus
Description: (§1) Individual clones from the fourth selection round were grown in 96-well deep well blocks in 100 μl of 2YT broth supplemented with 50 μg/ml ampicillin at 37° C. and 220 rpm for 5 hours. Then, 5 μl of helper phages were added to each well and incubated at 37° C. for 30 minutes. After centrifuging at 3,000 rpm for 10 minutes, the cells were resuspended and grown overnight in 150 μl/well of 2YT broth supplemented with 50 μg/ml ampicillin and 50 μg/ml kanamycin.
(§2) For the ELISA screening, 96-well ELISA plates were coated with target proteins (1 μg/ml in PBS) at 4° C. overnight and then blocked with 2% BSA for 2 hours at room temperature. The supernatant containing phage particles was added to the plates and incubated at room temperature for 1 hour. After incubation, the plates were washed five times with PBST. HRP (horseradish peroxidase) conjugated anti-M13 antibody (Sino Biological, China) was added to the wells and incubated at room temperature for 1 hour. Following another round of washing five times with PBST, 50 μl of TMB (3,3′, 5,5″-tetramethylbenzidine, #34029, ThemoFisher) was added to each well. After 5 minutes, the reaction was stopped by adding 50 μl stop solution (#C1058, Solarbio, China). The absorbance at 450 nm (OD450) was measured using a plate reader (SpectraMax M5, Molecule Devices). Wells coated with BSA were used as negative controls. Phage clones with an ELISA score ratio (target/BSA)>3 were considered positive clones.

[2] = target: T2, mouse LTβR extracellular domain fused with an Fc fragment at the C-terminus (mouse, UniProt P50284 31-223)
T2 construct: extracellular domain; Bought; also called mLTβR; not shown: Fc fragment at the C-terminus
T2 sequence (P50284 31-223): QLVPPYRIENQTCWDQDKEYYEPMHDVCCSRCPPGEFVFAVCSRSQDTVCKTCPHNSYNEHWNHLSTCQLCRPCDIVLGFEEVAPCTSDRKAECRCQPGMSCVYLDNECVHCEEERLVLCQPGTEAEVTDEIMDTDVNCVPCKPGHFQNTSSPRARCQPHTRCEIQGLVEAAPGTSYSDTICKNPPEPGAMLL
Description: as §1, §2

[3] = target: T3, human HVEM extracellular domain fused with an Fc fragment at the C-terminus (human, UniProt Q92956 39-202)
T3 construct: extracellular domain; Bought; also called hHVEM; not shown: Fc fragment at the C-terminus
T3 sequence (looked up): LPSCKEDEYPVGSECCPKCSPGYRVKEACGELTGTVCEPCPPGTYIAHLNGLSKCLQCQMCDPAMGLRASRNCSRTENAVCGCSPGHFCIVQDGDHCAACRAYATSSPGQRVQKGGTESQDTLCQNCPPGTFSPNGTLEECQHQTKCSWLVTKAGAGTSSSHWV
Description: as §1, §2

Measured: binding result

T1 sequence (P36941 31-227): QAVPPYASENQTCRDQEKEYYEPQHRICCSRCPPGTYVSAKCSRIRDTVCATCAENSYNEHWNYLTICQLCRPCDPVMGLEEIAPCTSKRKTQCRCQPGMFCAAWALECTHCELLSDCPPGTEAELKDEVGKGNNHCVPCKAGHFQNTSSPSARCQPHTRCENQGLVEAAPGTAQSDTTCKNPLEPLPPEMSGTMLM

B1: LIGHT-75 (ligand)
chain: DGPAGSWEQLIQERRSHEVNPAAHLTGANSSLTGSGGPLLWETNLGLAFLRGLSYHDGALVVTKAGYYYIYSKVQLGGVGCPLGLAGPITHGLYKRTPRYPEELELLVSQQSPCGRATSSSRVWWDSSFLGGVVHLEAGEKVVVRVSDERLVRTRDGTRSYFGAFMV
notes: Printed mutations: Q117N, S160G, T161P, L220S, L227T; Soluble protein carries an N-terminal His tag
binds: all assays above

B2: LIGHT-78 (ligand)
chain: DGPAGSWEQLIQERRSHEVNPAAHLTGANSSLTGSGGPLLWETNLGLAFLRGLSYHDGALVVTKAGYYYIYSKVQLGGVGCPLGLAGSITHGLYKRTPRYPEELELLVSQQSPCGRATSSSRVWWDSSFLGGVVHLEAGEKVVVRVSDERLVRTRDGTRSYFGAFMV
notes: Printed mutations: Q117N, S160G, T161S, L220S, L227T; Soluble protein carries an N-terminal His tag
binds: all assays above

B3: LIGHT-82 (ligand)
chain: DGPAGSWEQLIQERRSHEVNPAAHLTGANSSLTGSGGPLLWETELGLAFLRGLSYHDGALVVTKAGYYYIYSKVQLGGVGCPLGLAGGITHGLYKRTPRYPEELELLVSQQSPCGRATSSSRVWWDSSFLGGVVHLEAGEKVVVRVSDSRLVRTRDGTRSYFGAFMV
notes: Printed mutations: Q117E, S160G, T161G, L220S, E222S, L227T; Soluble protein carries an N-terminal His tag
binds: all assays above

B4: LIGHT-85 (ligand)
chain: DGPAGSWEQLIQERRSHEVNPAAHLTGANSSLTGSGGPLLWETELGLAFLRGLSYHDGALVVTKAGYYYIYSKVQLGGVGCPLGLAGSITHGLYKRTPRYPEELELLVSQQSPCGRATSSSRVWWDSSFLGGVVHLEAGEKVVVRVSDSRLVRTRDGTRSYFGAFMV
notes: Printed mutations: Q117E, S160G, T161S, L220S, E222S, L227T; Soluble protein carries an N-terminal His tag
binds: all assays above

B5: LIGHT-79 (ligand)
chain: DGPAGSWEQLIQERRSHEVNPAAHLTGANSSLTGSGGPLLWETELGLAFLRGLSYHDGALVVTKAGYYYIYSKVQLGGVGCPLGLAGSITHGLYKRTPRYPEELELLVSQQSPCGRATSSSRVWWDSSFLGGVVHLEAGEKVVVRVSDERLVRTRDGTRSYFGAFMV
notes: Printed mutations: Q117E, S160G, T161S, L220S, L227T; Soluble protein carries an N-terminal His tag
binds: all assays above

B6: LIGHT-81 (ligand)
chain: DGPAGSWEQLIQERRSHEVNPAAHLTGANSSLTGSGGPLLWETNLGLAFLRGLSYHDGALVVTKAGYYYIYSKVQLGGVGCPLGLAGPITHGLYKRTPRYPEELELLVSQQSPCGRATSSSRVWWDSSFLGGVVHLEAGEKVVVRVSDSRLVRTRDGTRSYFGAFMV
notes: Printed mutations: Q117N, S160G, T161P, L220S, E222S, L227T; Soluble protein carries an N-terminal His tag
binds: all assays above

B7: LIGHT-80 (ligand)
chain: DGPAGSWEQLIQERRSHEVNPAAHLTGANSSLTGSGGPLLWETNLGLAFLRGLSYHDGALVVTKAGYYYIYSKVQLGGVGCPLGLAGGITHGLYKRTPRYPEELELLVSQQSPCGRATSSSRVWWDSSFLGGVVHLEAGEKVVVRVSDSRLVRTRDGTRSYFGAFMV
notes: Printed mutations: Q117N, S160G, T161G, L220S, E222S, L227T; Soluble protein carries an N-terminal His tag
binds: all assays above

B8: LIGHT-77 (ligand)
chain: DGPAGSWEQLIQERRSHEVNPAAHLTGANSSLTGSGGPLLWETELGLAFLRGLSYHDGALVVTKAGYYYIYSKVQLGGVGCPLGLAGPITHGLYKRTPRYPEELELLVSQQSPCGRATSSSRVWWDSSFLGGVVHLEAGEKVVVRVSDERLVRTRDGTRSYFGAFMV
notes: Printed mutations: Q117E, S160G, T161P, L220S, L227T; Soluble protein carries an N-terminal His tag
binds: all assays above

B9: LIGHT-83 (ligand)
chain: DGPAGSWEQLIQERRSHEVNPAAHLTGANSSLTGSGGPLLWETELGLAFLRGLSYHDGALVVTKAGYYYIYSKVQLGGVGCPLGLAGPITHGLYKRTPRYPEELELLVSQQSPCGRATSSSRVWWDSSFLGGVVHLEAGEKVVVRVSDSRLVRTRDGTRSYFGAFMV
notes: Printed mutations: Q117E, S160G, T161P, L220S, E222S, L227T; Soluble protein carries an N-terminal His tag
binds: all assays above
